Laboratory results taken from patent publication US11230581B2, “Peptides and combination of peptides for use in immunotherapy against ovarian cancer and other cancers” (Immatics Biotechnologies GmbH, priority 2015, dated 2022).

These substances were tested against HLA-A*02:01 (Homo sapiens, UniProt P04439, D140Y/D185E/D98H/E176V/E277Q/G131W/G231S/I119V/I121R/I166T/I218V/L300P/L318F/N151K/N90K/P208A/P217A/Q86G/Q94H/R138H/R169H/T345S) (assay: MHC binding assay (UV-ligand exchange, β2m ELISA, peptide exchange yield)). Details: binding of HLA-class I restricted peptides to HLA-A*02:01, UV-ligand exchange.
Summary of the method: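 Peptide-MHC complexes formed by UV-ligand exchange, cleaving a UV-sensitive placeholder peptide in favour of the test peptide. Exchange yield measured by ELISA: monomers diluted 100-fold onto streptavidin-coated plates, 1 h 37 °C, detected with 2 ug/ml HRP anti-β2m and TMB, absorbance at 450 nm.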

| Substance | Peptide exchange (MHC class I binding score, peptide exchange yield) |
| --- | --- |
| 233 (VLSETLYEL; listed as Homo sapiens) [compound 233] | “++” (≥20% = ++) |
| 234 (ALMEDTGRQML; listed as Homo sapiens) [compound 234] | “++” (≥20% = ++) |
| 235 (YLNDLHEVLL; listed as Homo sapiens) [compound 235] | “++++” (≥75% = ++++) |
| 236 (GLLEAKVSL; listed as Homo sapiens) [compound 236] | “+++” (≥50 = +++) |
| 237 (ALLEASGTLLL; listed as Homo sapiens) [compound 237] | “++++” (≥75% = ++++) |
| 238 (YLISFQTHI; listed as Homo sapiens) [compound 238] | “+++” (≥50 = +++) |
| 239 (AAFAGKLLSV; listed as Homo sapiens) [compound 239] | “+++” (≥50 = +++) |
| 240 (ILLEQAFYL; listed as Homo sapiens) [compound 240] | “+++” (≥50 = +++) |
| 241 (SLVEVNPAYSV; listed as Homo sapiens) [compound 241] | “+++” (≥50 = +++) |
| 242 (AIAYILQGV; listed as Homo sapiens) [compound 242] | “++” (≥20% = ++) |
| 243 (LLLNELPSV; listed as Homo sapiens) [compound 243] | “+++” (≥50 = +++) |
| 244 (SLFGGTEITI; listed as Homo sapiens) [compound 244] | “+++” (≥50 = +++) |
| 245 (SMIDDLLGV; listed as Homo sapiens) [compound 245] | “+++” (≥50 = +++) |
| 246 (LLWEVVSQL; listed as Homo sapiens) [compound 246] | “+++” (≥50 = +++) |
| 247 (VLLPNDLLEKV; listed as Homo sapiens) [compound 247] | “+++” (≥50 = +++) |
| 248 (FLFPNQYVDV; listed as Homo sapiens) [compound 248] | “+++” (≥50 = +++) |

| Substance | Peptide exchange (MHC class I binding score, peptide exchange yield) |
| --- | --- |
| 249 (LLDGFLVNV; listed as Homo sapiens) [compound 249] | “+++” (≥50 = +++) |
| 250 (ALSEEGLLVYL; listed as Homo sapiens) [compound 250] | “+++” (≥50 = +++) |
| 251 (ALYTGFSILV; listed as Homo sapiens) [compound 251] | “++” (≥20% = ++) |
| 252 (LLIGTDVSL; listed as Homo sapiens) [compound 252] | “+++” (≥50 = +++) |
| 253 (GLDAATATV; listed as Homo sapiens) [compound 253] | “++” (≥20% = ++) |
| 254 (TLLAFIMEL; listed as Homo sapiens) [compound 254] | “+++” (≥50 = +++) |
| 255 (VLASYNLTV; listed as Homo sapiens) [compound 255] | “+++” (≥50 = +++) |
| 256 (FLPPEHTIVYI; listed as Homo sapiens) [compound 256] | “+++” (≥50 = +++) |
| 257 (SIFSAFLSV; listed as Homo sapiens) [compound 257] | “+++” (≥50 = +++) |
| 258 (ELAERVPAI; listed as Homo sapiens) [compound 258] | “++” (≥20% = ++) |
| 261 (YVLEFLEEI; listed as Homo sapiens) [compound 261] | “++” (≥20% = ++) |
| 262 (LLWGDLIWL; listed as Homo sapiens) [compound 262] | “+++” (≥50 = +++) |
| 263 (LLVSNLDFGV; listed as Homo sapiens) [compound 263] | “+++” (≥50 = +++) |
| 264 (SLQEQLHSV; listed as Homo sapiens) [compound 264] | “+++” (≥50 = +++) |
| 265 (LLFGGTKTV; listed as Homo sapiens) [compound 265] | “++” (≥20% = ++) |

The next lines start with the values.

| Peptide exchange (MHC class I binding score, peptide exchange yield) | Substance |
| --- | --- |
| “+++” (≥50 = +++) | 266 (KITDTLIHL; listed as Homo sapiens) [compound 266] |
| “+++” (≥50 = +++) | 267 (ALQDFLLSV; listed as Homo sapiens) [compound 267] |
| “++” (≥20% = ++) | 269 (RVLEVGALQAV; listed as Homo sapiens) [compound 269] |
| “++” (≥20% = ++) | 270 (LLLDEEGTFSL; listed as Homo sapiens) [compound 270] |
| “+++” (≥50 = +++) | 271 (LVYPLELYPA; listed as Homo sapiens) [compound 271] |
| “+++” (≥50 = +++) | 272 (ALGNTVPAV; listed as Homo sapiens) [compound 272] |
| “++” (≥20% = ++) | 273 (NLFQSVREV; listed as Homo sapiens) [compound 273] |
| “++” (≥20% = ++) | 274 (SLLFSLFEA; listed as Homo sapiens) [compound 274] |
| “++” (≥20% = ++) | 275 (YLVYILNEL; listed as Homo sapiens) [compound 275] |
| “+++” (≥50 = +++) | 276 (ALFTFSPLTV; listed as Homo sapiens) [compound 276] |
| “++” (≥20% = ++) | 277 (LLPPLESLATV; listed as Homo sapiens) [compound 277] |
| “++” (≥20% = ++) | 278 (QLLDVVLTI; listed as Homo sapiens) [compound 278] |
| “++” (≥20% = ++) | 279 (ALWGGTQPLL; listed as Homo sapiens) [compound 279] |
| “+++” (≥50 = +++) | 280 (VLPDPEVLEAV; listed as Homo sapiens) [compound 280] |
| “+++” (≥50 = +++) | 281 (ILRESTEEL; listed as Homo sapiens) [compound 281] |
| “+++” (≥50 = +++) | 282 (LLADVVPTT; listed as Homo sapiens) [compound 282] |
| “+++” (≥50 = +++) | 283 (ALYIGDGYVIHLA; listed as Homo sapiens) [compound 283] |
| “+++” (≥50 = +++) | 284 (ILLSQTTGV; listed as Homo sapiens) [compound 284] |

| Peptide exchange (MHC class I binding score, peptide exchange yield) | Substance |
| --- | --- |
| “+++” (≥50 = +++) | 285 (QLLHVGVTV; listed as Homo sapiens) [compound 285] |
| “+++” (≥50 = +++) | 286 (YLFPGIPEL; listed as Homo sapiens) [compound 286] |
| “+++” (≥50 = +++) | 287 (FLNEFFLNV; listed as Homo sapiens) [compound 287] |
| “+++” (≥50 = +++) | 288 (NLINEINGV; listed as Homo sapiens) [compound 288] |
| “++++” (≥75% = ++++) | 289 (VLLEIEDLQV; listed as Homo sapiens) [compound 289] |
| “+++” (≥50 = +++) | 295 (VLDRESPNV; listed as Homo sapiens) [compound 295] |
| “+++” (≥50 = +++) | 296 (FMEGAIIYV; listed as Homo sapiens) [compound 296] |
| “+++” (≥50 = +++) | 297 (VLADIELAQA; listed as Homo sapiens) [compound 297] |
| “+++” (≥50 = +++) | 298 (VMITKLVEV; listed as Homo sapiens) [compound 298] |
| “+++” (≥50 = +++) | 299 (YLLETSGNL; listed as Homo sapiens) [compound 299] |
| “+++” (≥50 = +++) | 300 (ALLGQTFSL; listed as Homo sapiens) [compound 300] |
| “+++” (≥50 = +++) | 301 (FLVEDLVDSL; listed as Homo sapiens) [compound 301] |
| “+++” (≥50 = +++) | 302 (ALLQEGEVYSA; listed as Homo sapiens) [compound 302] |
| “++++” (≥75% = ++++) | 303 (AILPQLFMV; listed as Homo sapiens) [compound 303] |
| “+++” (≥50 = +++) | 304 (MTLGQIYYL; listed as Homo sapiens) [compound 304] |
| “++++” (≥75% = ++++) | 305 (SIANFSEFYV; listed as Homo sapiens) [compound 305] |
| “+++” (≥50 = +++) | 306 (ALVNVQIPL; listed as Homo sapiens) [compound 306] |
